In US20200131227A1, “POLYPEPTIDE WITH TUMOUR BINDING ACTIVITY” (RUPRECHT-KARLS-UNIVERSITÄT HEIDELBERG, priority 2017, published 2020):
Entries after “also recorded” stand apart in the source; their conditions may differ. Where a SMILES comes first, the peptide text is derived from it. Bridges are numbered along the chain shown (N, C = ends). Where no end group is shown, it is not given here.

Legend:
[1] = molecular target: integrin αvβ6 (ITGαvβ6) as expressed on human carcinoma cell lines and tumor tissue sections (human) (UniProt P06756); experiment: peptide competing with 125I-SFITGv6 on HNO97 cells, 60 min
Chain of integrin αvβ6 (ITGαvβ6) as expressed on human carcinoma cell lines and tumor tissue sections (human) (P06756 31-1048, chain 1 of 2): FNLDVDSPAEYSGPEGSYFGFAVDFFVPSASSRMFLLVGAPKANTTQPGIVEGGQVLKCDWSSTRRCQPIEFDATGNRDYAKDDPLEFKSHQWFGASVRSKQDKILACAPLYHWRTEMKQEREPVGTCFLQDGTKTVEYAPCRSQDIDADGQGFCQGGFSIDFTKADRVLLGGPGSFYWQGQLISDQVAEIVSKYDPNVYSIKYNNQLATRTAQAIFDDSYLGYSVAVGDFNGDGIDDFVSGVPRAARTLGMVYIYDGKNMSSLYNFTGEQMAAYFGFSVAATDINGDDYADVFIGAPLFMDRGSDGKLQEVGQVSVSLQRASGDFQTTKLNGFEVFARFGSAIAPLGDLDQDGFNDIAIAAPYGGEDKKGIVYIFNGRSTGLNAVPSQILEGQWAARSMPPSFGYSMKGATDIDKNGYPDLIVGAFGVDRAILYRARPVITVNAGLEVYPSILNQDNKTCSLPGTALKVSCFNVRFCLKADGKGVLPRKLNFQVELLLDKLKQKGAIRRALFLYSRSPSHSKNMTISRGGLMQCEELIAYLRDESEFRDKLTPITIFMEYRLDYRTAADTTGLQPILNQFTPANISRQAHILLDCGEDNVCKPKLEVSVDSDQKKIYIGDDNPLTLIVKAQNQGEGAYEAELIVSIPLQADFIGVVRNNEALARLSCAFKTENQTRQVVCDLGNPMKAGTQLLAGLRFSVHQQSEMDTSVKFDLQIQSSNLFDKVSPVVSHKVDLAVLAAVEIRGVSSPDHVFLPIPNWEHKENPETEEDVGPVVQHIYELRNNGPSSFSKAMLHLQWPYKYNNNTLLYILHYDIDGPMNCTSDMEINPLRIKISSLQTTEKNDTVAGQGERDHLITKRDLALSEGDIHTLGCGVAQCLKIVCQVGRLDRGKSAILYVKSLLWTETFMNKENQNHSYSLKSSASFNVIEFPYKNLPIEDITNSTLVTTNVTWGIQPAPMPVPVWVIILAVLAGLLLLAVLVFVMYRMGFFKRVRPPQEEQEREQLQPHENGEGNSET
Chain of integrin αvβ6 (ITGαvβ6) as expressed on human carcinoma cell lines and tumor tissue sections (human) (P18564 22-788, chain 2 of 2, further chain): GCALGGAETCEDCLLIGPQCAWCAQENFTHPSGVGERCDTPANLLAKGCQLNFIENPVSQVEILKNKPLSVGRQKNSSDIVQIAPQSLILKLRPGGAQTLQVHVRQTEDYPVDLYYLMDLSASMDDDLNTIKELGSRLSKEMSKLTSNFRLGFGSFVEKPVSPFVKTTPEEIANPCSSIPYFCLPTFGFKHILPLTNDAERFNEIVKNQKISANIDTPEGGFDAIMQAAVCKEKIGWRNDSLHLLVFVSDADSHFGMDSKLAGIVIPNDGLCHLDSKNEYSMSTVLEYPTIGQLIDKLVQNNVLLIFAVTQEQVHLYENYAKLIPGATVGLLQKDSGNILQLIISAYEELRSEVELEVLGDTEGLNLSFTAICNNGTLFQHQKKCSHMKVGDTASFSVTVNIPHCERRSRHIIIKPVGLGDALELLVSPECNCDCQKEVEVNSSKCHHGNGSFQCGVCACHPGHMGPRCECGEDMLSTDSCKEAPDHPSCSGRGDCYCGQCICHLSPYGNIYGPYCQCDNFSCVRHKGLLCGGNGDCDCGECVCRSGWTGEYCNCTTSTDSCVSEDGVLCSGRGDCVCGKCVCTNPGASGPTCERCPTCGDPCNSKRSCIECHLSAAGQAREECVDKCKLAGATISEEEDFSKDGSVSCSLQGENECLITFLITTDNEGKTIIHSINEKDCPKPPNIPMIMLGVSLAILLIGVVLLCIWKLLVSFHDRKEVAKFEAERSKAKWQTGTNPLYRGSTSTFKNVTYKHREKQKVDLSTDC

[2] = molecular target: ITGαvβ3 (Homo sapiens, UniProt P05106+P06756); experiment: Surface plasmon resonance assay (SPR), ITGαvβ3; type: binding; settings: SPR
Chain of ITGαvβ3 (P06756 31-992 limits assumed): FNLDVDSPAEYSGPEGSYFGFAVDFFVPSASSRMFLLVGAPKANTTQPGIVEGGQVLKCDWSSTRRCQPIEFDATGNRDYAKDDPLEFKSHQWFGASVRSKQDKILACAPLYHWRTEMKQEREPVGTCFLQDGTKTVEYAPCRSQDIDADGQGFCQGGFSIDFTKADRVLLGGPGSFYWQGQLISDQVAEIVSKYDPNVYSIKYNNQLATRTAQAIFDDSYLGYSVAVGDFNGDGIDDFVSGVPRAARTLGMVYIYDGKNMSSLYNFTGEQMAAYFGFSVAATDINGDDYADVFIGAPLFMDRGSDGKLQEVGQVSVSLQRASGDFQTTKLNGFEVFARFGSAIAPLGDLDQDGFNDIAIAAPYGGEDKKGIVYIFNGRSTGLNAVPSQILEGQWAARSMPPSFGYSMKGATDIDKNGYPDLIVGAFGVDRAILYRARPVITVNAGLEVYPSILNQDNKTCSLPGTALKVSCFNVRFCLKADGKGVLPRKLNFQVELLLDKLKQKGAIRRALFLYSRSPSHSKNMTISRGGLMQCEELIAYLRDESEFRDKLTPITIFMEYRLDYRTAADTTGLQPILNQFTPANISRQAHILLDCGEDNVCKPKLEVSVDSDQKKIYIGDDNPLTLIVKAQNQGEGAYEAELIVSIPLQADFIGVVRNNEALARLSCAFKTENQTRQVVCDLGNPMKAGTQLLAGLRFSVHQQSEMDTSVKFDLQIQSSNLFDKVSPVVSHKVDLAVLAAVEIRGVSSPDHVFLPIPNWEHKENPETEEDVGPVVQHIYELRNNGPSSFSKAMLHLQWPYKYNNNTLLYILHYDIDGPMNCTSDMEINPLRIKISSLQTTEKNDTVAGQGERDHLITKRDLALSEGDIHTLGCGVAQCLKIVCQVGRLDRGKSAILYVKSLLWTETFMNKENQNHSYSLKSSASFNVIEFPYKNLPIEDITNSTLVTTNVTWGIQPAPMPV
Chain of ITGαvβ3 (P05106 27-718 limits assumed): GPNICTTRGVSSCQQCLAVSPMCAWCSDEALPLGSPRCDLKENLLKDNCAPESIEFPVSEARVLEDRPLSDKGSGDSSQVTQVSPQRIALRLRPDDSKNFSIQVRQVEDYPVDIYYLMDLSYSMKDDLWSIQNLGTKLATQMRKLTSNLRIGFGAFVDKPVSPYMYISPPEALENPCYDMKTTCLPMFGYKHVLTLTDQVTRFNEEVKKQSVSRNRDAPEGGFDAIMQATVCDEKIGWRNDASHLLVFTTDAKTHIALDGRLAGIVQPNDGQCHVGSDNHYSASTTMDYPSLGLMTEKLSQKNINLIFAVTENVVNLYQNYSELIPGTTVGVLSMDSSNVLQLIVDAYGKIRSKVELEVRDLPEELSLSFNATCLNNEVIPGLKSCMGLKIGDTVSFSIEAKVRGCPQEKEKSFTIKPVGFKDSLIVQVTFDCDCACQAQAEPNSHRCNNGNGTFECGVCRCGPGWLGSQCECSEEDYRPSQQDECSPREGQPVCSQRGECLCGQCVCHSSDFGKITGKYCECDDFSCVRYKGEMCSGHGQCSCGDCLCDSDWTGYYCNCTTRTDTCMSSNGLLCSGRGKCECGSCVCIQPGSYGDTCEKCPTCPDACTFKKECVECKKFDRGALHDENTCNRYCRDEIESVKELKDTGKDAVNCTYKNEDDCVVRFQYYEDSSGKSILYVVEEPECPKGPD
Procedure: (§1) Assessment of the binding affinity was performed on a BiaCore X100 (GE Healthcare). To avoid denaturation of the heterodimer during amide activation ITGαvβ6 and ITGαvβ3, respectively, were used as analytes and SFITGv6 was immobilized at its N-terminus on a C1 sensor Chip (BR-1005-35, GE Healthcare) using a manual amine coupling protocol. Briefly, after activation of the sensor chip surface with a solution of EDC 0.4 M/NHS 0.1 M for 5 min a 100 μM peptide dissolved in HBS-EP running buffer (0.1 M HEPES, 30 mM EDTA, 1.5 M NaCl, 0.5% surfactant P20, pH 7.2) was immobilized with a contact time of 30 sec until a loading level of 18 response units (RU) was obtained. […] The SPR-sensogram data were evaluated with the BiaCore evaluation software. The dissociation constant (KD) was determined by a 1:1 Langmuir model fit of the SPR-sensograms.
as §1, with “SFLAP3” for “peptide”, “to obtain” for “until”, “12” for “18”, “(RU).” for “(RU) was obtained.”, “SPR sensogram” for “SPR-sensogram”, “SPR sensograms.” for “SPR-sensograms.”

[3] = system: HNO399 xenografts; experiment: Biodistribution, HNO399 xenografts; type: in vivo, mice
[4] = Serum stability assay (radio-HPLC); type: in vitro ADME, human; settings: radio-HPLC, 37° C., up to 24 hours
Procedure: Five MBq of the purified ^131I-radiolabeled peptide was incubated in 300 μL human serum at 37° C. After different time intervals (15 min to 24 hours) 20 μL serum was precipitated with 40 μL acetonitrile. The stability of the labeled peptide in the supernatant was monitored by radio-HPLC at selected time points using a chromolith performance RP18ec column (3 mm×100 mm) equipped with a gamma detector (Packard COBRA™ Auto-Gamma, GMI). Separation condition was a gradient of 0% to 60% aqueous acetonitrile supplemented with 0.1% TFA over 10 min with a flow rate of 2 mL/min.

[5] = system: HNSCC tumor sections (HNO97 xenograft, HNO444, HNO399, HNO210); experiment: Histochemical peptide staining of HNSCC tumor cryosections; design: species or system human; settings: biotinylated PEG(12)-peptide, 10^-5 M
Procedure: Staining with the biotinylated PEG(12)-SFITGv6 peptide was performed on acetone-fixed cryosections (5 μm) of tumor tissues after blocking of unspecific binding using the Avidin/Biotin Blocking Kit (SP-2001, Vector Laboratories). A stock solution of the lyophilized peptide was prepared by dilution in 5% aqueous DMSO. Slices were incubated overnight at 4° C. with 10^-5 M peptide concentration in antibody diluent (DAKO). Detection of bound peptide was carried out with the Vectastain Elite ABC Kit (PK-6100, Vector Laboratories) according to manufacturer's protocol. Peptide specificity was ensured by a scrambled (GRD) PEG(12)-SFITGv6 derivate, the somatostatin receptor ligand DOTATOC and negative controls (without peptide or primary antibody) Staining results were assessed by bright field microscopy (BX50) with the SC30 camera and the cell Sense software (all Olympus).
Immunohistochemical stainings were performed by use of the biotinylated PEG(12)-labled peptides (SFITGv6, SFLAP3) on 5 μm acetone-fixed tumor tissue cryosections. To prevent background staining we initially applied the Avidin/Biotin Blocking Kit (SP-2001, Vector Laboratories). The lyophilized peptides were diluted in 5% aqueous DMSO preparing a 1 mM Stock solution. The HNSCC cryosections were incubated with 10^−5 M peptide concentration in antibody diluent (DAKO) at 4° C. overnight. To detect bound peptide the Vectastain Elite ABC Kit (PK-6100, Vector Laboratories) was applied according to manufacturer's protocol. Peptide binding specificity was ensured by use of a peptide derivate (scrambled control) and negative controls (without peptide). Due to instability of the peptide binding staining results were assessed on the same day by bright field microscopy (BX50) with the SC30 camera and the cell Sense software (all Olympus).

[6] = system: HNO223 xenografts; experiment: Biodistribution, HNO223 xenografts; type: in vivo, mice
[7] = molecular target: T1, integrin αvβ6 (ITGαvβ6) as expressed on human carcinoma cell lines and tumor tissue sections (human, UniProt P06756 31-1048; P18564 22-788); experiment: 125I-peptide binding to HNO210 cells, 60 min
T1 construct: whole, on cells; also called ITGAVB6; ITGαvβ6-expressing HNO97 cells
T1 sequence (P06756 31-1048, chain 1 of 2): as the sequence (P06756 31-1048, chain 1 of 2) above
T1 sequence (P18564 22-788, chain 2 of 2): as the sequence (P18564 22-788, chain 2 of 2, further chain) above

[8] = molecular target: T2, ITGαvβ3 heterodimer (analyte in SPR) (UniProt P06756 31-992; P05106 27-718, limits assumed); experiment: SPR, αvβ3 heterodimer against ITGαvβ6 on immobilised SFLAP3
T2 construct: Soluble heterodimer used as analyte over immobilised peptide; construct not described
T2 sequence (P06756 31-992 limits assumed, chain 1 of 2): as the sequence (P06756 31-992 limits assumed) above
T2 sequence (P05106 27-718 limits assumed, chain 2 of 2): as the sequence (P05106 27-718 limits assumed) above

[9] = molecular target: T1, integrin αvβ6 (ITGαvβ6) as expressed on …; experiment: competition of unlabeled SFLAP3 with 125I-SFLAP3 on HNO223 cells
[10] = molecular target: T1, integrin αvβ6 (ITGαvβ6) as expressed on …; experiment: 125I-peptide binding to HNO223 cells, 60 min
[11] = molecular target: T3, ITGαvβ6 heterodimer (analyte in SPR) (UniProt P06756 31-992; P18564 22-707, limits assumed); experiment: SPR (BiaCore X100), peptide immobilised on C1 chip, ITGαvβ6 as analyte, 1:1 Langmuir fit; SPR, ITGαvβ6 as analyte
T3 construct: Soluble heterodimer used as analyte over immobilised peptide; construct not described; also called heterodimeric receptor ITGαvβ6
T3 sequence (P06756 31-992 limits assumed, chain 1 of 2): as the sequence (P06756 31-992 limits assumed) above
T3 sequence (P18564 22-707 limits assumed, chain 2 of 2): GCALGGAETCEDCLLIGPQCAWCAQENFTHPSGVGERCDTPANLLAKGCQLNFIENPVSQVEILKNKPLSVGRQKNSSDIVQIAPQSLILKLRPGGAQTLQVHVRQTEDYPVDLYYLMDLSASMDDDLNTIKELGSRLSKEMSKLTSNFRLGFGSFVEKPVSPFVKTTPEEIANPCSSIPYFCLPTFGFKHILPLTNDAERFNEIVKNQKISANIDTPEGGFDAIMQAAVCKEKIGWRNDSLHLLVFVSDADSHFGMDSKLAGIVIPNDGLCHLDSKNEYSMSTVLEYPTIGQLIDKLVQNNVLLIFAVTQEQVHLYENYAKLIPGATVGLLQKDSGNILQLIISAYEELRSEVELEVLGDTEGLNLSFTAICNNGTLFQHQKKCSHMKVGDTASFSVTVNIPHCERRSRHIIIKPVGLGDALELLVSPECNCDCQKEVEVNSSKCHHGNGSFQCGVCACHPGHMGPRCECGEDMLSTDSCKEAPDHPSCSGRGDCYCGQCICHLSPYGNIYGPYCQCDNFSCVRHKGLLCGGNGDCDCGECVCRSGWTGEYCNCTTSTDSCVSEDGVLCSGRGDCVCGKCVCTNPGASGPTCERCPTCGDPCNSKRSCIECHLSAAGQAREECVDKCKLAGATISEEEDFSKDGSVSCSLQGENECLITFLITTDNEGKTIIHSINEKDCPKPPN

[12] = molecular target: T1, integrin αvβ6 (ITGαvβ6) as expressed on …; experiment: 125I-peptide binding to HNO199 cells, 60 min
[13] = molecular target: T2, ITGαvβ3 heterodimer (analyte in SPR); experiment: SPR (BiaCore X100), peptide immobilised on C1 chip, ITGαvβ3 as analyte, 1:1 Langmuir fit; SPR, αvβ3 as analyte
[14] = molecular target: T1, integrin αvβ6 (ITGαvβ6) as expressed on …; experiment: competition of unlabeled SFLAP3 with 125I-SFLAP3 on HNO399 cells
[15] = molecular target: T1, integrin αvβ6 (ITGαvβ6) as expressed on …; experiment: unlabeled peptide competing with 125I-SFLAP3 on HNSCC cell lines (HNO97, HNO399, HNO223), mean; mean over HNSCC cell lines
[16] = molecular target: T1, integrin αvβ6 (ITGαvβ6) as expressed on …; experiment: 125I-peptide binding to HNO97 cells, 60 min
[17] = molecular target: T1, integrin αvβ6 (ITGαvβ6) as expressed on …; experiment: competition of unlabeled SFLAP3 with 125I-SFLAP3 on HNO97 cells
[18] = molecular target: T1, integrin αvβ6 (ITGαvβ6) as expressed on …; experiment: unlabeled peptide competing with 125I-SFITGv6 on HNSCC cell lines (HNO97, HNO399, HNO223), mean; mean over HNSCC cell lines
[19] = molecular target: T2, ITGαvβ3 heterodimer (analyte in SPR); experiment: SPR (BiaCore X100), peptide immobilised on C1 chip, ITGαvβ3 as analyte, 1:1 Langmuir fit; SPR, ITGαvβ3 as analyte
[20] = molecular target: T1, integrin αvβ6 (ITGαvβ6) as expressed on …; experiment: unlabeled peptide competing with 125I-SFITGv6 on HNO97 cells, 60 min; HNO97 cells, cell competition IC50
[21] = molecular target: T2, ITGαvβ3 heterodimer (analyte in SPR); experiment: SPR, ITGαvβ3 against ITGαvβ6 on immobilised SFITGv6
[22] = molecular target: T1, integrin αvβ6 (ITGαvβ6) as expressed on …; experiment: unlabeled peptide (10^-10 to 10^-4 M) competing with the 125I-labeled peptide on HNO97 cells

A20FMDV2 (peptide)
IC50 [1]: 3.2 nM

CC(C)C[C@@H]1NC(=O)[C@H](CC(=O)O)NC(=O)CNC(=O)[C@H](CCCNC(=N)N)NC(=O)CNC(=O)[C@H]([C@@H](C)O)NC(=O)[C@@H](NC(=O)[C@H](CCCNC(=N)N)NC(=O)CN)CSSC[C@@H](C(=O)N[C@@H](Cc2ccc(O)cc2)C(=O)N2CCC[C@H]2C(=O)N[C@@H](CC(=O)O)C(=O)O)NC(=O)[C@H](CC(C)C)NC(=O)[C@H](CCCNC(=N)N)NC(=O)CNC1=O [SFLAP3, H2N-G-R-C1-T-G-R-G-D-L-G-R-L-C2-Y-P-D-COOH] (H-GRCTGRGDLGRLCYPD-OH; disulfide 3-13)
lower affinity for ITGαvβ3 than for ITGαvβ6 [2]: 10 fold
maximum accumulation in the tumor lesion ([3]; 60 min post injection): 3.6 % ID/g
accumulation in the tumor after decrease ([3]; 360 min after injection): ~2%
proteolytic stability in human serum [4]: no degradation over a 24 hours; also recorded: shown for up to 24 hours
histochemical peptide staining result [5]: slightly fainter staining capacity
maximum accumulation in the tumor lesion ([6]; 60 min post injection, HNO233-xenografted as printed): 3.4 % ID/g
accumulation in the tumor after decrease ([6]; 360 min after injection): ~2%

B1: SFLAP3 (peptide)
peptide: GRCTGRGDLGRLCYPD
modifications: disulfide 3-13 (inferred); not fully specified (C-terminus); also: 125I on the tyrosine in labelled tracer form
percent of applied dose bound per 10^6 cells [7]: 10.6%
fold lower affinity than for ITGαvβ6 [8]: 10 fold
IC50 [9]: 2.56 nM
percent of applied dose bound per 10^6 cells [10]: 17.6%
Kd [11]: 7.4 nM
percent of applied dose bound per 10^6 cells [12]: 19.7%
Kd [13]: 185 nM
IC50 [14]: 3.25 nM
IC50 [15]: 3.5 nM
percent of applied dose bound per 10^6 cells [16]: 24.7%
IC50 [17]: 4.7 nM

B2: SFITGv6 (peptide)
peptide: GRCTFRGDLMQLCYPD
modifications: disulfide 3-13 (inferred); not fully specified (C-terminus); also: 125I on the tyrosine in labelled tracer form
notes: Synthetic SFTI-1 derivate
IC50 [18]: 14.1 nM
Kd [19]: 185 nM
IC50 [20]: 16.1 nM
percent of applied dose bound per 10^6 cells [10]: 13.5%
fold lower affinity than for ITGαvβ6 [21]: 10 fold

B3: SFPF-10 (peptide)
peptide: GRCTFRGDKMQLCYPD
modifications: disulfide 3-13 (inferred); also: 125I on the tyrosine in labelled tracer form
notes: Originally selected peptide of the SFTI8Ph library
percent of applied dose bound per 10^6 cells [7]: 5%
IC50 [22]: 18 nM
percent of applied dose bound per 10^6 cells [10]: 11%
percent of applied dose bound per 10^6 cells [12]: 3.1%
percent of applied dose bound per 10^6 cells [16]: 7.2%
